Here are results for one molecule from paper PMC12221368, “Long AKAP18 isoforms anchor ubiquitin specific proteinases and coordinate calcium reuptake at the sarcoplasmic reticulum” (The Journal of Biological Chemistry, 2025).

One test addresses GFP-AKAP18γ (UniProt Q9P0M2).
The next test deals with GFP-AKAP18δ (UniProt Q6JP77 1-353). The test is described as follows: cell-based or functional assay.
Sequence of GFP-AKAP18δ (Q6JP77 whole entry, stated change not applied): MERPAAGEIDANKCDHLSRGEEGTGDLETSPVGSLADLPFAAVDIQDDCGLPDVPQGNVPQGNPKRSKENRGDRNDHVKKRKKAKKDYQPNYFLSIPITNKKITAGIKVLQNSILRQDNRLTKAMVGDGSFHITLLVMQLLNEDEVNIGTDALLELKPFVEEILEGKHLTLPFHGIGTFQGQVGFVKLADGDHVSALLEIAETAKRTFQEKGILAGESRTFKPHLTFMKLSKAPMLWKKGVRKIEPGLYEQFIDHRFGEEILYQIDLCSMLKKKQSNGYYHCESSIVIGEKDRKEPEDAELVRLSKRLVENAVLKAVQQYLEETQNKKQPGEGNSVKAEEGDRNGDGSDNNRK

Sequence of GFP-AKAP18γ (Q9P0M2 whole entry): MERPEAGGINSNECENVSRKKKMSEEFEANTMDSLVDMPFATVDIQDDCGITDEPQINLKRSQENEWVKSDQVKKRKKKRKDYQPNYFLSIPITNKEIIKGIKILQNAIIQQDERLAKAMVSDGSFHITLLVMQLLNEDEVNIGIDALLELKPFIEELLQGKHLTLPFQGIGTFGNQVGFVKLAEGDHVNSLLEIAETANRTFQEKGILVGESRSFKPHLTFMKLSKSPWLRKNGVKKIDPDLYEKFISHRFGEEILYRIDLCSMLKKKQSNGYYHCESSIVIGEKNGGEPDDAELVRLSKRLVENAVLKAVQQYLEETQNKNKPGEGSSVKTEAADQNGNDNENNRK

B1: V5-tagged USP4 (enzyme, UniProt Q13107 1-963, looked up)
chain: MAEGGGCRERPDAETQKSELGPLMRTTLQRGAQWYLIDSRWFKQWKKYVGFDSWDMYNVGEHNLFPGPIDNSGLFSDPESQTLKEHLIDELDYVLVPTEAWNKLLNWYGCVEGQQPIVRKVVEHGLFVKHCKVEVYLLELKLCENSDPTNVLSCHFSKADTIATIEKEMRKLFNIPAERETRLWNKYMSNTYEQLSKLDNTVQDAGLYQGQVLVIEPQNEDGTWPRQTLQSKSSTAPSRNFTTSPKSSASPYSSVSASLIANGDSTSTCGMHSSGVSRGGSGFSASYNCQEPPSSHIQPGLCGLGNLGNTCFMNSALQCLSNTAPLTDYFLKDEYEAEINRDNPLGMKGEIAEAYAELIKQMWSGRDAHVAPRMFKTQVGRFAPQFSGYQQQDSQELLAFLLDGLHEDLNRVKKKPYLELKDANGRPDAVVAKEAWENHRLRNDSVIVDTFHGLFKSTLVCPECAKVSVTFDPFCYLTLPLPLKKDRVMEVFLVPADPHCRPTQYRVTVPLMGAVSDLCEALSRLSGIAAENMVVADVYNHRFHKIFQMDEGLNHIMPRDDIFVYEVCSTSVDGSECVTLPVYFRERKSRPSSTSSASALYGQPLLLSVPKHKLTLESLYQAVCDRISRYVKQPLPDEFGSSPLEPGACNGSRNSCEGEDEEEMEHQEEGKEQLSETEGSGEDEPGNDPSETTQKKIKGQPCPKRLFTFSLVNSYGTADINSLAADGKLLKLNSRSTLAMDWDSETRRLYYDEQESEAYEKHVSMLQPQKKKKTTVALRDCIELFTTMETLGEHDPWYCPNCKKHQQATKKFDLWSLPKILVVHLKRFSYNRYWRDKLDTVVEFPIRGLNMSEFVCNLSARPYVYDLIAVSNHYGAMGVGHYTAYAKNKLNGKWYYFDDSNVSLASEDQIVTKAAYVLFYQRRDDEFYKTPSLSSSGSSDGGTRPSSSQQGFGDDEACSMDTN
As for B1, the deubiquitinase activity (Ub-AMC fluorescent assay) in GFP immune complexes, fold over IgG controls, n = 3 with GFP-AKAP18γ was found to be 7.5 fold; in the test with GFP-AKAP18δ it was 9.2 fold.
